Source: patent US20030199671A1, “Binding molecules for Fc-region polypeptides” (priority 2001, published 2003)

How the values were obtained:
[1] = molecular target: human IgG (unfractionated, polyclonal); assay: mini-column; ligand density not determined
[2] = molecular target: human IgG4 (human) [IgG part: P01861]; assay: mini-column chromatography, immobilised ligand
[3] = molecular target: human IgG1 (human) [IgG part: P01857]; assay: mini-column chromatography, immobilised ligand
[4] = molecular target: human IgG2 (human) [IgG part: P01859]; assay: mini-column chromatography, immobilised ligand
[5] = molecular target: human IgG (unfractionated, polyclonal); assay: filterplate; ligand density not determined
[6] = molecular target: human IgG4 (human) [IgG part: P01861]; assay: batch binding, immobilised ligand
[7] = molecular target: human IgG1 (human) [IgG part: P01857]; assay: batch binding, immobilised ligand
[8] = molecular target: human IgG2 (human) [IgG part: P01859]; assay: batch binding, immobilised ligand
human IgG3 (human) = human IgG3 (human) (UniProt P01860); assay: batch binding, immobilised ligand
human IgG3 (human), sequence (P01860 other isoform, or with tags, fused parts or gaps): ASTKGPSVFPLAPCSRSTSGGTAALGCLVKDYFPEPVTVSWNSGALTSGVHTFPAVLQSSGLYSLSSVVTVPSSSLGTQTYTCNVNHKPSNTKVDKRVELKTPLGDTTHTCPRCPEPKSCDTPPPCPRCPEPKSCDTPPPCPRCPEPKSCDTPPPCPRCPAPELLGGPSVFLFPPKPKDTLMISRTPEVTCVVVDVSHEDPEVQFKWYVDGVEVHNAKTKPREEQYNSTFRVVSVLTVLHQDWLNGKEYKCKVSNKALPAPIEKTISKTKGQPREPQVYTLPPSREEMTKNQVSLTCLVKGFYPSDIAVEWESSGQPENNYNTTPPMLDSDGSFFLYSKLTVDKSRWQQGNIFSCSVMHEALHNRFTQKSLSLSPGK

human IgG4 (human) [IgG part: P01861], sequence (P01861 other isoform, or with tags, fused parts or gaps): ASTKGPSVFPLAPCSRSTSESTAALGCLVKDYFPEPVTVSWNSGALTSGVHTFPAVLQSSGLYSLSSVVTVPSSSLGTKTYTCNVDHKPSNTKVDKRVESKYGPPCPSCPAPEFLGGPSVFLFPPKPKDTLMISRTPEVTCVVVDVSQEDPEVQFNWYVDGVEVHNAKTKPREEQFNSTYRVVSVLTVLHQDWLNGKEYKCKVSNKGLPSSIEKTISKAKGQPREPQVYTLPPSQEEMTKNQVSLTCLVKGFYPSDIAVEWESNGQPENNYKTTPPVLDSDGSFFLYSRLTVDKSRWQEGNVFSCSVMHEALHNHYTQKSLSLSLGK
human IgG2 (human) [IgG part: P01859], sequence (P01859 other isoform, or with tags, fused parts or gaps): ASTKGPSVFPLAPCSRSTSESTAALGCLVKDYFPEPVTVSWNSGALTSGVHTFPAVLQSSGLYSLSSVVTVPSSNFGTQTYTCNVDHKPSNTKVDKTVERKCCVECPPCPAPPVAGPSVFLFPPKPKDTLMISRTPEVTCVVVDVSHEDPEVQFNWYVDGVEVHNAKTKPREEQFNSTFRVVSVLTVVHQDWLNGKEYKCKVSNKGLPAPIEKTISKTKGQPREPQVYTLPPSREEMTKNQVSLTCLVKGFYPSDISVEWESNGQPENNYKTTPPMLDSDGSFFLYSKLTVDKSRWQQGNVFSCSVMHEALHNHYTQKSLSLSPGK
human IgG1 (human) [IgG part: P01857], sequence (P01857 other isoform, or with tags, fused parts or gaps): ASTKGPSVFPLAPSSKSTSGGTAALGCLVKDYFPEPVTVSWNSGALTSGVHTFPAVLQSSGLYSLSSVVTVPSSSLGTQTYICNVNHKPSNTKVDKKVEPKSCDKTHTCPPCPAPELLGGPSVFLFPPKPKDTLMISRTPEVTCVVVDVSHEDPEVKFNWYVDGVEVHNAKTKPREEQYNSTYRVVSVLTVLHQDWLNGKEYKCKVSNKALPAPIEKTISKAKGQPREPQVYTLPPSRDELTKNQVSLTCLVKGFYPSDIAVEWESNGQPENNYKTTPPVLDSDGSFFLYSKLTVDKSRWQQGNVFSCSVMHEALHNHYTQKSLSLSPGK

Question: Which results are given for Protein A (from UniProt P38507 37-327)?
Answer: 10% Breakthrough Capacity (mg IgG/mL resin) [1]: 12.9; Total Dynamic Capacity (mg IgG/mL resin) [1]: 16.3; binding efficiency [2]: > 90%; binding efficiency [3]: > 90%; binding efficiency [4]: > 90%; Static Capacity (mg IgG/mL resin) [5]: 11.1; Bound (% of Total Load) [6]: 89%; bdg % (of Total Load) [6]: 92%; Bound (% of Total Load) [7]: 96%; bdg % (of Total Load) [7]: 93%; Bound (% of Total Load) [8]: 85%; bdg % (of Total Load) [8]: 93%; Bound (% of Total Load) (human IgG3 (human)): 0%; bdg % (of Total Load) (human IgG3 (human)): 5%
